Measurements taken from the supplement of paper PMC9876800.

System: peptide library, one residue held at a place counted from the S/T acceptor
Assay: relative phosphorylation of the sub-library (ratio to the mean residue at this position); higher = residue favoured
Outline: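 In 384-well plates, purified recombinant kinases (human or orthologue constructs) were incubated for 90 min under kinase-specific conditions with 50 μM biotinylated degenerate peptide sub-libraries and 50 μM ATP spiked with γ-32P-ATP. Each sub-library fixed a single residue at one position around a central Ser/Thr. Relative sub-library phosphorylation, measured by phosphorimaging and densitometry of streptavidin membrane spots, is given as a ratio to the mean residue at that position.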

GRK1, construct: Full length, human, sequence (Q15835 whole entry, looked up): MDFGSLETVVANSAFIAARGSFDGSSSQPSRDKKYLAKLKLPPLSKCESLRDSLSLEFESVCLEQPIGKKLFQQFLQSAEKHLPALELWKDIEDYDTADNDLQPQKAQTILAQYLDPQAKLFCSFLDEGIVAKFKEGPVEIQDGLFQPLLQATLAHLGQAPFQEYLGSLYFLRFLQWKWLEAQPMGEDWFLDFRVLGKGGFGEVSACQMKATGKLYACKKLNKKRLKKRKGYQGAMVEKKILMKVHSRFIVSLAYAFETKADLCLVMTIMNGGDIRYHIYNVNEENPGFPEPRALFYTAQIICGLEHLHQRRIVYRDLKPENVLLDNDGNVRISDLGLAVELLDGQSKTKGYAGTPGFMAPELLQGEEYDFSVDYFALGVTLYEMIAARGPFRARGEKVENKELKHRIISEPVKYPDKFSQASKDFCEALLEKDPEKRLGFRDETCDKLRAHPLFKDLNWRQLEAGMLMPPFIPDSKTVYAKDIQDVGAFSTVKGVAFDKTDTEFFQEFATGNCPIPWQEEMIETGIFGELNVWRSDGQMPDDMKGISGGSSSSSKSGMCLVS
MAPK7, construct: aa1-405, human, sequence (Q13164 1-405, looked up): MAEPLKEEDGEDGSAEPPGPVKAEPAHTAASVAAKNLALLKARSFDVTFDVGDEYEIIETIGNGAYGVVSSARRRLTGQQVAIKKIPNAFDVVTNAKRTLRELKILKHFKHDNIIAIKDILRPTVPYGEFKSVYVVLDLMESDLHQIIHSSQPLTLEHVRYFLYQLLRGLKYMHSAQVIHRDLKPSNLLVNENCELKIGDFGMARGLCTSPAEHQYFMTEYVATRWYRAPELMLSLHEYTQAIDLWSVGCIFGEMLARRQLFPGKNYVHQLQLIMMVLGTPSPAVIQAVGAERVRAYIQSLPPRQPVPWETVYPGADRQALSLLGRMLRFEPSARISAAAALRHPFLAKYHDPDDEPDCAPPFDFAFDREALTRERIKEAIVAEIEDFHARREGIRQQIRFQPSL
PDPK1, construct: Full length, human, sequence (O15530 whole entry, looked up): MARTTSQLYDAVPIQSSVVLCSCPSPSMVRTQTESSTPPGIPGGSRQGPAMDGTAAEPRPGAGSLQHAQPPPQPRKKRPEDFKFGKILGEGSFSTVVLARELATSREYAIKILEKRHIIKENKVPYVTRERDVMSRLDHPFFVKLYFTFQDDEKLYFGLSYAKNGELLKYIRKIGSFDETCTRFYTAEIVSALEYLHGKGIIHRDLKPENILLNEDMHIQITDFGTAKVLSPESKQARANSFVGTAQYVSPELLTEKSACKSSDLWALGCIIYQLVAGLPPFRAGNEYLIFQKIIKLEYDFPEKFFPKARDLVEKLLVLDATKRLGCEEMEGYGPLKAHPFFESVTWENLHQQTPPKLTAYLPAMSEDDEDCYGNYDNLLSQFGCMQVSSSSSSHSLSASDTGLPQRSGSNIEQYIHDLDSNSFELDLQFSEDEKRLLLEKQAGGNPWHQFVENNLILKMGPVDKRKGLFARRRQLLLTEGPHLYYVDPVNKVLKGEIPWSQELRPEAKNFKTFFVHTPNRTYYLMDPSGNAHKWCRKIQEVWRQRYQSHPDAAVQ
STK16, construct: Full length, human, sequence (O75716 whole entry, looked up): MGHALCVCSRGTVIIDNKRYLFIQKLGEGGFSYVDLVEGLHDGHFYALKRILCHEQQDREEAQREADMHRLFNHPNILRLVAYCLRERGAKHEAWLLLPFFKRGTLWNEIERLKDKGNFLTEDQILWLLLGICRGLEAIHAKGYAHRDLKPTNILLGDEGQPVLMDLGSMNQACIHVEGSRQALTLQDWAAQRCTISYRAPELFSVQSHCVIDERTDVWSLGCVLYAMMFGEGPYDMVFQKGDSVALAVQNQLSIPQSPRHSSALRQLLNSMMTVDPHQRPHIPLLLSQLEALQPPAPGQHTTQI

MAPK7, construct: aa1-405, human (from UniProt Q13164)
relative phosphorylation
Settings | at +1 | at +2 | at +3 | at +4 | at -1 | at -2 | at -3 | at -4 | at -5
A fixed | 5.25 | 0.808 | 0.997 | 0.943 | 0.957 | 0.867 | 1.2 | 1.21 | 1.14
D fixed | 0.374 | 0.579 | 0.866 | 1.2 | 0.745 | 0.491 | 0.862 | 1.11 | 0.83
E fixed | 0.338 | 0.519 | 0.827 | 0.951 | 0.646 | 0.484 | 0.872 | 1.12 | 0.81
F fixed | 0.47 | 0.908 | 0.941 | 0.922 | 0.956 | 0.658 | 0.778 | 0.919 | 1.03
G fixed | 1.67 | 1 | 1.14 | 1.08 | 0.808 | 0.666 | 1.08 | 1.09 | 0.977
H fixed | 0.466 | 0.917 | 0.886 | 1.05 | 1.28 | 0.568 | 0.822 | 0.913 | 1.07
I fixed | 0.372 | 1.08 | 1.45 | 0.998 | 0.684 | 1.43 | 0.988 | 0.891 | 1.02
K fixed | 0.449 | 1.24 | 0.59 | 0.947 | 0.834 | 0.797 | 0.827 | 0.943 | 0.988
L fixed | 0.54 | 1.02 | 1.27 | 0.918 | 1.61 | 2.64 | 1.07 | 0.938 | 1.06
M fixed | 0.523 | 1.08 | 1.12 | 0.993 | 1.66 | 1.91 | 1.13 | 0.976 | 0.986
N fixed | 0.464 | 0.963 | 0.789 | 0.8 | 0.948 | 0.61 | 1.06 | 0.954 | 1
P fixed | 3.79 | 0.758 | 1.13 | 1.04 | 1.13 | 2.1 | 1.87 | 1.16 | 1.03
Q fixed | 0.438 | 0.927 | 0.818 | 1.07 | 1.02 | 0.928 | 0.926 | 0.941 | 0.867
R fixed | 0.471 | 2 | 0.794 | 0.939 | 0.983 | 0.695 | 1.04 | 0.894 | 1.11
V fixed | 0.426 | 1.16 | 1.08 | 0.975 | 0.69 | 0.986 | 0.96 | 0.982 | 1.01
W fixed | 0.534 | 1.1 | 1.2 | 1.21 | 0.844 | 0.631 | 0.791 | 1.03 | 0.892
Y fixed | 0.429 | 0.945 | 1.1 | 0.97 | 1.2 | 0.533 | 0.737 | 0.931 | 1.18
pThr fixed | 0.632 | 0.779 | 0.702 | 0.863 | 0.541 | 0.976 | 0.946 | 1.07 | 0.901
pTyr fixed | 0.518 | 0.587 | 0.989 | 0.835 | 0.945 | 0.815 | 1.02 | 1.11 | 1.04

GRK1, construct: Full length, human (from UniProt Q15835)
relative phosphorylation
Settings | at +1 | at +2 | at +3 | at +4 | at -1 | at -2 | at -3 | at -4 | at -5
A fixed | 0.624 | 1.06 | 0.886 | 1.02 | 0.737 | 0.553 | 0.76 | 1.15 | 1.16
D fixed | 0.767 | 1.81 | 2.19 | 2.5 | 1.31 | 0.963 | 1.16 | 1.43 | 2.29
E fixed | 2.89 | 1.47 | 2.19 | 2.42 | 1.39 | 1.28 | 1.19 | 1.75 | 1.74
F fixed | 0.711 | 0.778 | 0.638 | 0.645 | 0.641 | 2.3 | 0.881 | 0.585 | 0.659
G fixed | 0.605 | 0.939 | 1.68 | 1.06 | 0.652 | 0.519 | 0.912 | 1.29 | 2.07
H fixed | 0.592 | 0.984 | 0.958 | 0.932 | 0.962 | 0.701 | 0.746 | 0.843 | 0.894
I fixed | 1.47 | 0.921 | 0.682 | 0.734 | 0.654 | 0.86 | 0.841 | 0.627 | 0.556
K fixed | 0.65 | 0.587 | 0.793 | 0.622 | 1.56 | 0.619 | 0.706 | 0.673 | 0.682
L fixed | 1.23 | 0.823 | 0.662 | 0.653 | 0.852 | 1.02 | 0.583 | 0.568 | 0.491
M fixed | 0.973 | 0.961 | 0.721 | 0.662 | 0.723 | 0.708 | 0.671 | 0.645 | 0.533
N fixed | 0.621 | 1.3 | 0.861 | 0.861 | 1.23 | 0.691 | 1.07 | 0.933 | 0.983
P fixed | 0.522 | 0.592 | 0.823 | 1.18 | 2.04 | 1.11 | 2.74 | 2.68 | 1.31
Q fixed | 1.11 | 1.06 | 0.956 | 0.82 | 0.932 | 0.65 | 0.966 | 0.897 | 0.708
R fixed | 0.605 | 0.682 | 0.633 | 0.544 | 0.993 | 1.02 | 1.07 | 0.813 | 0.678
V fixed | 2.36 | 1.03 | 0.703 | 0.8 | 0.811 | 0.66 | 0.956 | 0.777 | 0.638
W fixed | 0.575 | 0.917 | 0.874 | 0.841 | 0.566 | 0.74 | 0.62 | 0.673 | 0.799
Y fixed | 0.701 | 1.1 | 0.754 | 0.707 | 0.953 | 2.61 | 1.13 | 0.662 | 0.81
pThr fixed | 2.35 | 0.972 | 1.21 | 3.6 | 3.08 | 4.99 | 3.2 | 1.84 | 1.43
pTyr fixed | 3.09 | 2.14 | 1.38 | 2.98 | 1.92 | 1.75 | 1.76 | 1.46 | 1.13

PDPK1, construct: Full length, human (from UniProt O15530)
relative phosphorylation
Settings | at +1 | at +2 | at +3 | at +4 | at -1 | at -2 | at -3 | at -4 | at -5
A fixed | 0.609 | 1.18 | 0.927 | 1.02 | 0.812 | 1.48 | 1 | 1.13 | 1.12
D fixed | 0.37 | 0.618 | 0.647 | 0.802 | 0.519 | 0.523 | 0.571 | 0.935 | 1.25
E fixed | 0.402 | 0.537 | 0.665 | 0.815 | 0.518 | 0.561 | 0.615 | 0.927 | 1.04
F fixed | 4.59 | 1.23 | 1.31 | 0.991 | 1.22 | 1.33 | 0.794 | 0.958 | 0.875
G fixed | 0.638 | 0.747 | 1.19 | 1.13 | 1.43 | 1.16 | 1.04 | 1.27 | 1.21
H fixed | 0.602 | 1.26 | 1.04 | 1.01 | 0.954 | 1 | 0.863 | 0.982 | 0.919
I fixed | 1.15 | 1.16 | 1.07 | 0.955 | 0.673 | 0.733 | 0.789 | 0.909 | 0.973
K fixed | 0.798 | 0.985 | 0.977 | 1.01 | 1.32 | 1.18 | 1.18 | 1.06 | 0.956
L fixed | 1.16 | 1.01 | 0.967 | 1 | 0.958 | 0.974 | 0.779 | 0.863 | 0.826
M fixed | 1.89 | 1.13 | 1.01 | 1.02 | 1.22 | 0.866 | 0.775 | 0.846 | 0.859
N fixed | 0.515 | 0.759 | 0.822 | 0.822 | 1.11 | 0.931 | 0.754 | 0.866 | 0.864
P fixed | 0.556 | 0.755 | 0.774 | 1.39 | 1.03 | 0.834 | 1 | 1.11 | 1.14
Q fixed | 0.622 | 0.722 | 0.77 | 0.871 | 0.847 | 0.94 | 0.843 | 0.89 | 0.788
R fixed | 0.875 | 1.18 | 1.29 | 1.21 | 1.61 | 1.49 | 3.72 | 1.18 | 1.09
V fixed | 0.664 | 1.21 | 1.02 | 0.868 | 0.661 | 0.71 | 0.762 | 1.07 | 1.19
W fixed | 0.709 | 0.98 | 1.28 | 1.13 | 0.873 | 0.987 | 0.749 | 0.994 | 0.919
Y fixed | 0.848 | 1.54 | 1.25 | 0.947 | 1.24 | 1.3 | 0.761 | 1.02 | 0.99
pThr fixed | 0.497 | 0.664 | 0.71 | 0.809 | 0.604 | 0.738 | 0.854 | 1.12 | 1.62
pTyr fixed | 0.432 | 0.616 | 0.903 | 0.852 | 0.738 | 0.821 | 1.13 | 2.5 | 2.94

STK16, construct: Full length, human (from UniProt O75716)
relative phosphorylation
Settings | at +1 | at +2 | at +3 | at +4 | at -1 | at -2 | at -3 | at -4 | at -5
A fixed | 0.727 | 2.01 | 1.04 | 1 | 0.863 | 1.44 | 0.99 | 1.12 | 1.1
D fixed | 0.32 | 0.668 | 0.537 | 0.519 | 0.334 | 0.409 | 0.474 | 0.885 | 0.694
E fixed | 0.182 | 0.604 | 0.496 | 0.566 | 0.273 | 0.36 | 0.491 | 0.674 | 0.581
F fixed | 0.531 | 0.95 | 0.956 | 0.888 | 0.833 | 0.758 | 0.672 | 1.12 | 0.96
G fixed | 4.33 | 1.26 | 1.66 | 1.23 | 2.16 | 0.83 | 0.808 | 1.13 | 0.953
H fixed | 0.804 | 0.887 | 0.982 | 1.07 | 2.29 | 0.75 | 0.824 | 0.94 | 1.06
I fixed | 0.534 | 0.991 | 0.898 | 0.982 | 0.526 | 1.23 | 1.98 | 0.894 | 0.914
K fixed | 1.08 | 0.844 | 1.36 | 1.16 | 1.4 | 0.569 | 0.854 | 1.06 | 0.99
L fixed | 0.461 | 0.915 | 0.81 | 0.835 | 0.656 | 1.03 | 0.894 | 0.952 | 0.868
M fixed | 0.447 | 0.822 | 0.881 | 0.875 | 0.815 | 1.04 | 0.85 | 0.961 | 0.989
N fixed | 2.13 | 0.787 | 0.897 | 0.746 | 0.737 | 0.509 | 0.701 | 0.798 | 0.875
P fixed | 0.801 | 1.03 | 1.03 | 1.1 | 1.64 | 4.27 | 2.6 | 1.43 | 1.54
Q fixed | 0.522 | 1.19 | 0.974 | 0.999 | 0.71 | 0.676 | 0.829 | 0.849 | 0.96
R fixed | 2.08 | 1.06 | 1.73 | 1.31 | 1.19 | 0.959 | 0.963 | 1.11 | 1.49
V fixed | 0.518 | 1.06 | 0.922 | 0.845 | 0.677 | 0.88 | 1.5 | 0.963 | 0.796
W fixed | 0.999 | 0.849 | 0.853 | 1.59 | 0.813 | 0.601 | 0.74 | 1.09 | 1.13
Y fixed | 0.534 | 1.08 | 0.98 | 1.29 | 1.09 | 0.695 | 0.834 | 1.02 | 1.1
pThr fixed | 0.289 | 0.402 | 0.518 | 0.44 | 0.352 | 2.01 | 0.864 | 0.838 | 0.845
pTyr fixed | 0.242 | 0.36 | 0.605 | 0.544 | 0.276 | 0.401 | 0.468 | 0.658 | 0.65
